This series deals with Escherichia coli TOP10. Nature of the series: shrunken log2 fold change of peptide-encoding DNA abundance (4.5 h post-induction vs induction); higher = less antimicrobial activity (less host growth inhibition). The note with it: time post-induction: 4.5 h; library: site-saturation at positions 5, 18, 19, 20.
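Also: peptides expressed intracellularly from a pBAD plasmid library in pooled LB shake-flask culture, induced with 0.3% L-arabinose, DNA abundance read by NGS, three biological replicates, DESeq2 with apeglm shrinkage.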

Turning to RRIRQRPPRLPRPRPRPHHFPRP, the “shrunken log2 fold change” value was -0.0176. The same measure for RRIRIRPPRLPRPRPRPVQGPRP: 0.552; for RRIRHRPPRLPRPRPRPALMPRP: -0.0655; for RRIRSRPPRLPRPRPRPSCDPRP: -0.444. The same measure for RRIRNRPPRLPRPRPRPTDEPRP: 0.0528; for RRIRTRPPRLPRPRPRPNKPPRP: -0.0031. For RRIRQRPPRLPRPRPRPITMPRP the value was 0.00801. For RRIRCRPPRLPRPRPRPLPEPRP, the “shrunken log2 fold change” value was determined as 0.397. RRIRRRPPRLPRPRPRPKHIPRP: the “shrunken log2 fold change” value came out at 0.0894.

As to RRIRSRPPRLPRPRPRPVDEPRP, the “shrunken log2 fold change” value is -0.216. In the case of RRIRPRPPRLPRPRPRPCNDPRP, the “shrunken log2 fold change” value is -0.456. Regarding RRIRVRPPRLPRPRPRPFPMPRP, the “shrunken log2 fold change” value is -0.35.

For RRIRARPPRLPRPRPRPIPIPRP, the “shrunken log2 fold change” value is 0.354. The same measure for RRIRHRPPRLPRPRPRPTNTPRP: -0.384; for RRIRCRPPRLPRPRPRPPDHPRP: 0.279. For RRIRKRPPRLPRPRPRPMMDPRP the value was 0.0443; for RRIRCRPPRLPRPRPRPLCNPRP, -0.244.

For the sequence RRIRCRPPRLPRPRPRPYDMPRP, the “shrunken log2 fold change” value is -0.726. Turning to RRIRRRPPRLPRPRPRPEQYPRP, the “shrunken log2 fold change” value came to 0.17.

For RRIRERPPRLPRPRPRPQRLPRP, the “shrunken log2 fold change” value came to 0.202. The same measure for RRIRHRPPRLPRPRPRPLSVPRP: -0.136. Turning to RRIRTRPPRLPRPRPRPAFQPRP, the “shrunken log2 fold change” value is 0.125. As for RRIRHRPPRLPRPRPRPDPSPRP, the “shrunken log2 fold change” value is -0.00848. For RRIRRRPPRLPRPRPRPIVFPRP the value was 0.00406; for RRIRIRPPRLPRPRPRPIGLPRP, -0.242.

As for RRIRNRPPRLPRPRPRPENVPRP, the “shrunken log2 fold change” value is -0.123. As to RRIRHRPPRLPRPRPRPVSIPRP, the “shrunken log2 fold change” value was -0.00904. The same measure for RRIRSRPPRLPRPRPRPMILPRP: 0.0266. The same measure for RRIRQRPPRLPRPRPRPDLEPRP: -0.0293; for RRIRNRPPRLPRPRPRPNEAPRP: -0.00931. Take RRIRARPPRLPRPRPRPFADPRP: the “shrunken log2 fold change” value is 0.438. The same measure for RRIRRRPPRLPRPRPRPHYCPRP: -0.356; for RRIRRRPPRLPRPRPRPSPKPRP: 0.127; for RRIRERPPRLPRPRPRPGHIPRP: -0.0236. The same measure for RRIRTRPPRLPRPRPRPVSNPRP: -0.442. For RRIRGRPPRLPRPRPRPEQSPRP the value was 1.05; for RRIRPRPPRLPRPRPRPCAFPRP, -0.148.

As to RRIRDRPPRLPRPRPRPYNVPRP, the “shrunken log2 fold change” value was -0.0265.

Take RRIRGRPPRLPRPRPRPHPDPRP: the “shrunken log2 fold change” value stood at 0.502. On to RRIRPRPPRLPRPRPRPWSPPRP, for which the “shrunken log2 fold change” value worked out at 0.121. For RRIRIRPPRLPRPRPRPHCYPRP the value was -0.104; for RRIRWRPPRLPRPRPRPFLKPRP, -0.4.

As to RRIRIRPPRLPRPRPRPFPRPRP, the “shrunken log2 fold change” value is -0.123. For RRIRRRPPRLPRPRPRPKDGPRP the value was 0.378; for RRIRGRPPRLPRPRPRPKIVPRP, 0.278; for RRIRHRPPRLPRPRPRPAVQPRP, -0.0994. The same measure for RRIRWRPPRLPRPRPRPERCPRP: 0.449; for RRIRGRPPRLPRPRPRPVIVPRP: 0.626.

Turning to RRIRARPPRLPRPRPRPRFYPRP, the “shrunken log2 fold change” value was -0.0395.

Consider RRIRIRPPRLPRPRPRPSHGPRP, for which the “shrunken log2 fold change” value came out at 0.09. On to RRIRSRPPRLPRPRPRPDRRPRP, for which the “shrunken log2 fold change” value was -0.0434. The same measure for RRIRLRPPRLPRPRPRPTLMPRP: 0.0897; for RRIRNRPPRLPRPRPRPFPTPRP: 0.00541; for RRIRDRPPRLPRPRPRPNVPPRP: 0.0123. For RRIRSRPPRLPRPRPRPQCIPRP the value was -1.27. The same measure for RRIRLRPPRLPRPRPRPDIPPRP: -0.0741. Turning to RRIRKRPPRLPRPRPRPCLAPRP, the “shrunken log2 fold change” value came to 0.433. The same measure for RRIRQRPPRLPRPRPRPMCRPRP: -0.0374; for RRIRCRPPRLPRPRPRPDQGPRP: -0.143; for RRIRTRPPRLPRPRPRPDPMPRP: -0.0555. For RRIRFRPPRLPRPRPRPFKAPRP the value was -0.11; for RRIRWRPPRLPRPRPRPIEDPRP, -0.00101. The same measure for RRIRDRPPRLPRPRPRPIYYPRP: -0.253. As for RRIRQRPPRLPRPRPRPQTYPRP, the “shrunken log2 fold change” value was -0.958. For RRIRCRPPRLPRPRPRPDVKPRP the value was -0.153; for RRIRLRPPRLPRPRPRPKCGPRP, 0.338. For RRIRFRPPRLPRPRPRPEFTPRP the value was 1.75; for RRIRTRPPRLPRPRPRPMFWPRP, 0.285; for RRIRHRPPRLPRPRPRPQHHPRP, -0.87. The same measure for RRIRMRPPRLPRPRPRPCMCPRP: -0.317; for RRIRSRPPRLPRPRPRPLNFPRP: -0.305; for RRIRVRPPRLPRPRPRPNESPRP: -0.374. RRIRARPPRLPRPRPRPPELPRP: the “shrunken log2 fold change” value was determined as 0.947.

On to RRIRTRPPRLPRPRPRPDVFPRP, for which the “shrunken log2 fold change” value was 0.0603. The same measure for RRIRYRPPRLPRPRPRPDLLPRP: -0.0601.

As for RRIRCRPPRLPRPRPRPDFTPRP, the “shrunken log2 fold change” value is -0.0655. Take RRIRRRPPRLPRPRPRPLSKPRP: the “shrunken log2 fold change” value was 1.95. For RRIRVRPPRLPRPRPRPNNSPRP the value was -0.309. For RRIRTRPPRLPRPRPRPIVNPRP the value was -0.655; for RRIRIRPPRLPRPRPRPWCMPRP, -0.693; for RRIRERPPRLPRPRPRPIDWPRP, -0.0206. For RRIRPRPPRLPRPRPRPSQTPRP the value was 0.265; for RRIRSRPPRLPRPRPRPRVMPRP, -0.171.

With RRIRVRPPRLPRPRPRPHWKPRP, the “shrunken log2 fold change” value was -0.14. For RRIRCRPPRLPRPRPRPKKKPRP, the “shrunken log2 fold change” value was -0.0938.

Take RRIRARPPRLPRPRPRPMCTPRP: the “shrunken log2 fold change” value was -0.0696. On to RRIRQRPPRLPRPRPRPMCTPRP, for which the “shrunken log2 fold change” value is -0.173.

Turning to RRIRNRPPRLPRPRPRPSAVPRP, the “shrunken log2 fold change” value was -0.193. For the sequence RRIRMRPPRLPRPRPRPEPWPRP, the “shrunken log2 fold change” value is 1.3.

RRIRSRPPRLPRPRPRPFGWPRP: the “shrunken log2 fold change” value came to 0.0625.

In the case of RRIRKRPPRLPRPRPRPLWCPRP, the “shrunken log2 fold change” value was 0.0281. For RRIRQRPPRLPRPRPRPQKTPRP the value was -0.064. For RRIRERPPRLPRPRPRPMGTPRP the value was -0.272; for RRIRDRPPRLPRPRPRPMIGPRP, 0.266. The same measure for RRIRFRPPRLPRPRPRPDRGPRP: 0.0145. For RRIRLRPPRLPRPRPRPLYVPRP, the “shrunken log2 fold change” value was -0.897. For RRIRYRPPRLPRPRPRPGYSPRP the value was -0.874; for RRIRQRPPRLPRPRPRPAVKPRP, -0.00195; for RRIRWRPPRLPRPRPRPQTQPRP, 0.516. For RRIRVRPPRLPRPRPRPWYTPRP the value was -0.507; for RRIRARPPRLPRPRPRPEKYPRP, 0.101. As for RRIRYRPPRLPRPRPRPANLPRP, the “shrunken log2 fold change” value was -1.19. For RRIRDRPPRLPRPRPRPLDYPRP the value was -0.242.

Regarding RRIRWRPPRLPRPRPRPDVPPRP, the “shrunken log2 fold change” value is -0.177. For RRIRTRPPRLPRPRPRPLAQPRP the value was 0.143. For RRIRERPPRLPRPRPRPDRIPRP the value was -0.311. In the case of RRIRIRPPRLPRPRPRPRRNPRP, the “shrunken log2 fold change” value was -0.0717. Consider RRIRSRPPRLPRPRPRPDPQPRP, for which the “shrunken log2 fold change” value was 0.282. For RRIRSRPPRLPRPRPRPDCPPRP the value was 0.0922; for RRIRFRPPRLPRPRPRPLMNPRP, -0.607. For RRIRNRPPRLPRPRPRPCYQPRP the value was -0.32; for RRIRERPPRLPRPRPRPWKHPRP, -0.176. For RRIRIRPPRLPRPRPRPPLFPRP the value was 0.0406. For the sequence RRIRVRPPRLPRPRPRPDHPPRP, the “shrunken log2 fold change” value is -0.386. Regarding RRIRKRPPRLPRPRPRPFSPPRP, the “shrunken log2 fold change” value is -0.102.

As for RRIRKRPPRLPRPRPRPEWGPRP, the “shrunken log2 fold change” value came to 0.755.

Regarding RRIRRRPPRLPRPRPRPHWFPRP, the “shrunken log2 fold change” value is -0.198.

Turning to RRIRPRPPRLPRPRPRPSGCPRP, the “shrunken log2 fold change” value amounted to 0.142. For RRIRQRPPRLPRPRPRPEITPRP the value was 0.0276; for RRIRRRPPRLPRPRPRPVFEPRP, 0.192. For RRIRLRPPRLPRPRPRPNCAPRP the value was 0.415. The same measure for RRIRGRPPRLPRPRPRPYTYPRP: -0.0842; for RRIRCRPPRLPRPRPRPYWAPRP: -1.21; for RRIRARPPRLPRPRPRPIHIPRP: -0.24. On to RRIRIRPPRLPRPRPRPRASPRP, for which the “shrunken log2 fold change” value is -0.195.
